Measured values published in patent publication US20140056903A1 (Regeneron, published 2014).

T1: cynomolgus GFRα3 on HEK293/MfGFRα3/MfRet/SRE-Luc cells (cynomolgus, UniProt O60609 1-400 (human entry), limits assumed)
T1 chain: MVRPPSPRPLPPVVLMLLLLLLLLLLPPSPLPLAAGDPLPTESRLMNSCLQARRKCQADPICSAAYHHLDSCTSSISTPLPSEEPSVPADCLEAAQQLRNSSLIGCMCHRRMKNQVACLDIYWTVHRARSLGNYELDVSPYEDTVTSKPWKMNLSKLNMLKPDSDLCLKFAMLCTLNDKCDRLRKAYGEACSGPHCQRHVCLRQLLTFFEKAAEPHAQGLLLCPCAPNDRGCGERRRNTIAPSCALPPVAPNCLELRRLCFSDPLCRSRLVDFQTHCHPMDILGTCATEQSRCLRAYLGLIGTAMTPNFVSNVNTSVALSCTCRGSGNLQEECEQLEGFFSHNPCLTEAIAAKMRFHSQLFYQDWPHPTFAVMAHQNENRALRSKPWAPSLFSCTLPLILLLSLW

T2: human GFRα2 expressed with a C-terminal human Fc tag and a hexahistidine tag (human, UniProt O00451 22-441, limits assumed)
T2 construct: bought protein; also called hGFRα2-hFc-6His; hGFRα2-hFc-6his
T2 sequence (looked up): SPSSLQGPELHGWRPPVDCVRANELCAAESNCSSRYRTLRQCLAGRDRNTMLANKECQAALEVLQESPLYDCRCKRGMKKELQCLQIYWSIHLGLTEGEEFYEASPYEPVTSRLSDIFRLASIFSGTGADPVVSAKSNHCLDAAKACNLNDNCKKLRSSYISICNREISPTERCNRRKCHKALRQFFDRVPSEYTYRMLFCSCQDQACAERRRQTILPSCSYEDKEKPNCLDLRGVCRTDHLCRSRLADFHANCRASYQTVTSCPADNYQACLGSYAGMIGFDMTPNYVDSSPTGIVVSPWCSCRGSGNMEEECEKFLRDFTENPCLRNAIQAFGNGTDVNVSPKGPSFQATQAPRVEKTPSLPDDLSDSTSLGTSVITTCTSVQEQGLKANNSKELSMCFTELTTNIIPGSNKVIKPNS

T3: human GFRα1 expressed with a C-terminal human Fc tag and a hexahistidine tag (human, UniProt P56159 25-429, limits assumed)
T3 construct: bought protein; also called hGFRα1-hFc-6His; hGFRα1-hFc-6his
T3 sequence (looked up): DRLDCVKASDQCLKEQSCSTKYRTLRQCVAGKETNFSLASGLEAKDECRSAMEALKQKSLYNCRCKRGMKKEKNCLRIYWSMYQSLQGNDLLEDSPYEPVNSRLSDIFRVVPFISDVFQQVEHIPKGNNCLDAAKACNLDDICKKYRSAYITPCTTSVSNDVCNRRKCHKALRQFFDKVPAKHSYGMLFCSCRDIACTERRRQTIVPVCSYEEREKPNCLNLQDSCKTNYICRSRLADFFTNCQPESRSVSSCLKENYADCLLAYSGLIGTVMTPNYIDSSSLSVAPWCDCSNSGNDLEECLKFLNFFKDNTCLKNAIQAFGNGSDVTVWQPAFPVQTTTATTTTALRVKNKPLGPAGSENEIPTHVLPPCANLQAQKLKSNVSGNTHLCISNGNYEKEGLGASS


How the values were obtained:
[1] = molecular target: T1, cynomolgus GFRα3 on …; assay: cell-based or functional assay
[2] = molecular target: T2, human GFRα2 expressed with a C-terminal …; assay: BLI Octet, antigen on anti-hFc tips, 100 ug/mL Ab
Procedure: (§1) The ability of anti-GFRα3 antibodies to bind to GDNF-family receptors was assessed using an Octet Red biosensor (Fortebio, Inc.). Antibodies were tested for binding to either human GFRα1 expressed with a C-terminal human Fc tag and a hexahistidine tag (hGFRα1-hFc-6His, R&D Systems #714-GR), human GFRα1 expressed with only a C-terminal human Fc tag (hGFRα1-hFc; SEQ ID: 376), human GFRα2 expressed with a C-terminal human Fc tag and a hexahistidine tag (hGFRα2-hFc-6His, R&D Systems #613-FR), human GFRα3 expressed with a C-terminal human Fc tag (hGFRα3-hFc, SEQ ID:371), or an irrelevant human Fc tagged protein. Antigens were captured onto anti-human Fc sensor tips from 10 ug/mL solutions for 5 minutes. The coated sensor tips were then blocked with a 100 ug/mL solution of irrelevant human Fc antibodies for 5 minutes. Blocked sensor tips were then submerged into wells containing […] of each anti-GFRα3 antibody or buffer alone for 10 minutes. The experiment was performed at 25° C. with a flow rate of 1000 rpm using HBST+BSA buffer (10 mM HEPES, 150 mM NaCl, 3 mM EDTA, 0.05% w/v Surfactant P20, 0.1 mg/mL BSA, pH 7.4). The binding response (measured in units of nm) at each step of the experiment was monitored and recorded.

[3] = molecular target: T4, irrelevant human Fc tagged protein; assay: BLI Octet, antigen on anti-hFc tips, 100 ug/mL Ab
T4 construct: negative control antigen; also called Irrelevant hFc tagged protein
Procedure: as §1

[4] = molecular target: T3, human GFRα1 expressed with a C-terminal …; assay: BLI Octet, antigen on anti-hFc tips, 100 ug/mL Ab
Procedure: as §1

[5] = molecular target: T5, human GFRα1 expressed with only a C-terminal human Fc tag (human); assay: BLI Octet, antigen on anti-hFc tips, 100 ug/mL Ab
T5 construct: also called hGFRα1-hFc
Procedure: as §1

[6] = molecular target: T6, human GFRα3 expressed with a C-terminal hFc tag (human); assay: BLI Octet, antigen on anti-hFc tips, 100 ug/mL Ab
T6 construct: also called hGFRα3-hFc
T6 sequence (chain, as listed by the source limits assumed): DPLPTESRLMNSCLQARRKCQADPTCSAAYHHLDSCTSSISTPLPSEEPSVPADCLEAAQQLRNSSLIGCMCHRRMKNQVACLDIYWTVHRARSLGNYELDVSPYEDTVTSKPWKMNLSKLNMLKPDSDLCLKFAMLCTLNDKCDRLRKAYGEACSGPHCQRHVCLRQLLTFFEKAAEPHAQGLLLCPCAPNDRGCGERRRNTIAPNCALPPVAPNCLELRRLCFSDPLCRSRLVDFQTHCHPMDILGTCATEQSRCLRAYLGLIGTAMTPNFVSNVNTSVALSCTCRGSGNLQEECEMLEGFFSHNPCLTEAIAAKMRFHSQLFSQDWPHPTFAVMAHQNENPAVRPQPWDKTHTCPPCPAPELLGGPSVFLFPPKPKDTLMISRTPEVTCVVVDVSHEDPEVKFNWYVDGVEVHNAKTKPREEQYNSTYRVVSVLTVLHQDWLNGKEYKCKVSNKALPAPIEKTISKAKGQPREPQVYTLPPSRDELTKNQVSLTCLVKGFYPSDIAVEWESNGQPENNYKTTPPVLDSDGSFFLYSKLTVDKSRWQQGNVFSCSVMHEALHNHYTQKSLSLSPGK
Procedure: as §1

[7] = molecular target: T2, human GFRα2 expressed with a C-terminal …; assay: BLI Octet, antigen captured on anti-hFc tips
Procedure: as §1

[8] = molecular target: T5, human GFRα1 expressed with only a …; assay: BLI Octet, antigen captured on anti-hFc tips
Procedure: as §1

Row | IC50 (SRE-luc, HEK293/MfGFRα3/MfRET cells, 500 pM human ARTEMIN-MMH) [1] | Bound (nm) [2] | Bound (nm) [3] | Bound (nm) [4] | Bound (nm) [5] | Bound (nm) [6] | binding result [7] | binding result [8] | Binder
1 | 0.7 nM | 0.06 nm | 0.03 nm | 0.03 nm | 0.04 nm | 1.17 nm | no binding (tested: 100 ug/mL) | no binding (tested: 100 ug/mL) | H4H2294S (antibody, human IgG4, V domains shown, human IgG4 Fc (H4H)) VH: EVQLVESGGGLVQPGGSLRLSCAASGFTFSSYAMSWVRQAPGKGLEWVSVISGSGGSTYYADAVKGRFTISRDNSKHTLYLQMNSLRAEDTAVYYCTKPSSYSSSNFYYGMDVWGQGSTVTVSS VL: DIQLTQSPSSVSASVGDRVTITCRASQGISSWLAWYQQKPGKAPKLLIYAASSLQSGVPSRFSGSGSGTDFTLTISSLQPEDFATYYCQQTNSFPFPFGPGTKVDIK
2 | 2.5 nM | 0.12 nm | 0.07 nm | 0.08 nm | 0.06 nm | 1.59 nm | no binding (tested: 100 ug/mL) | no binding (tested: 100 ug/mL) | H4H2342P (antibody, human IgG4, V domains shown, human IgG4 Fc (H4H)) VH: EVQLLESGGGLVQPGGSLRLSCAASGFTFSTYAMSWVRQAPGKGLEWVSAIRGNGVNTYYGDSMKGRFTISRDNSKDTLYLQMNSLRAEDTAVYYCAKNKWELLVFEYWGQGTLVTVSS VL: DIQMTQSPSSLSASVGDRVTITCRASQDISNYLAWYQQKPGKVPKLLIYAASTLQSGVPFRFSGSGSGTDFTLTISSLQPEDVATYYCQKYNSAPPFGPGTKVDIK
3 | 1.5 nM | 0.05 nm | 0.02 nm | 0.03 nm | 0.05 nm | 1.04 nm | no binding (tested: 100 ug/mL) | no binding (tested: 100 ug/mL) | H4H2292S (antibody, human IgG4, V domains shown, human IgG4 Fc (H4H)) VH: EVQLVESGGGVVQPGRSLRLSCAASGFTFSSYGMHWVRQAPGKGLEWVSFIWYDGSNKYYADSVKGRFTISRDNSKNTLYLQMNSLTAEDTAVYYCARRGILTGTTAFDIWGQGTMVTVSS VL: DIQMTQSPSSLSASVGDRVTITCRASQSISSYLNWYQQKPGKAPKLLIYAASSLQSGVPSRFSGSGSGTDFTLTIRSLIPEDFATYYCQQTYNTPFTFGPGTKVEIK
4 | 1.8 nM | 0.02 nm | 0 nm | -0.01 nm | 0 nm | 1.18 nm | no binding (tested: 100 ug/mL) | no binding (tested: 100 ug/mL) | H4H2212N (antibody, human IgG4, V domains shown, human IgG4 Fc (H4H)) VH: EVQLLESGGGLVQPGGSLRLSCAASGFTFSSYAMSWVRQGPGKGLEWVSGISGSGGSTYNADSVKGRFTISRDNSKNTLYLQMNSLRAEDTAVYYCAKDSGTYWYYFDYWGQGILVTVSS VL: not shown
5 | 0.8 nM | 0.06 nm | 0.03 nm | 0.03 nm | 0.03 nm | 1.11 nm | no binding (tested: 100 ug/mL) | no binding (tested: 100 ug/mL) | H4H2243N2 (antibody, human IgG4, V domains shown, human IgG4 Fc (H4H)) VH: QVQLVQSGAEVKKPGASVKVSCKASGYTFTSYGIIWVRQAPGQGLEWMGWISGYNGNTNYAQNLQGRVTMTTDTSTTTAYMELRSLRSDDTAVYYCARWGIATRPYYYYGMDVWGQGTTVTVSS VL: DIQMTQSPSSLSASVGDRVTITCRASQDITNYLAWFQQKPGKAPKSLIYAASSLQSGVPSKFSGSGSGTDFTLTISSLQPEDFATYYCQQYNSYPPTFGPGTKVDIK
6 | 1.3 nM | 0.04 nm | 0.03 nm | 0.03 nm | 0.02 nm | 1.25 nm | no binding (tested: 100 ug/mL) | no binding (tested: 100 ug/mL) | H4H2352S (antibody, human IgG4, V domains shown, human IgG4 Fc (H4H); also called H4H2352S-1) VH: EVQLVQSGAEVKKPGASVKVSCKASGYTFTNYGITWVRQAPGQGLEWMGWISAYNGNTGYAQKFQGRVTMTTDTSTSTAYMELRSLRSDDTAVYYCAREDYDFWRAFDIWGQGTMVTVSS VL: EIVLTQSPGTLSLSPGERATLSCRASQSVSSTYLAWLQQKPGQAPRLLIYGASSRATGIPDRFSGSGSGTDFTLTINRLEPEDFAVYYCQQYAYSPYTFGQGTKLEIK
